Measured values as given in PMC2760798 (Nucleic Acids Research, 2009).

How the values were obtained:
[1] = target: the molecule itself; experiment: AUC
[2] = target: T1, SfiI D79A (UniProt O52512 1-269, D79A); experiment: EMSA
T1 sequence: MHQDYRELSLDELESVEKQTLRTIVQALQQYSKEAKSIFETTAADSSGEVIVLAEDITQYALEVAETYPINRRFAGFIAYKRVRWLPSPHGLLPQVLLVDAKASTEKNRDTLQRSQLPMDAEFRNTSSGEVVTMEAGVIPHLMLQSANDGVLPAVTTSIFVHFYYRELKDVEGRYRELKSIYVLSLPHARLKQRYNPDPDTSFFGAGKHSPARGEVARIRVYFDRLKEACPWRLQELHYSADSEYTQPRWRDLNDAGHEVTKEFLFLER

[3] = target: T2, SfiI endonuclease wt (UniProt O52512 1-269); experiment: EMSA
T2 sequence: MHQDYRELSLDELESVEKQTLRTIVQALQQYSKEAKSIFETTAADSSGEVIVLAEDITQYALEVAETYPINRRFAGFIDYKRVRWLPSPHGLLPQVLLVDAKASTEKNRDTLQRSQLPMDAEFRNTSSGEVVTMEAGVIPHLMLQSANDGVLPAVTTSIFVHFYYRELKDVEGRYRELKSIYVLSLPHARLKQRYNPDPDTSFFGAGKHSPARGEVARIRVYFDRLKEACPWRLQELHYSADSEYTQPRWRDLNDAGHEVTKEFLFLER

[4] = target: T3, SfiI D100A (UniProt O52512 1-269, D100A); experiment: EMSA
T3 sequence: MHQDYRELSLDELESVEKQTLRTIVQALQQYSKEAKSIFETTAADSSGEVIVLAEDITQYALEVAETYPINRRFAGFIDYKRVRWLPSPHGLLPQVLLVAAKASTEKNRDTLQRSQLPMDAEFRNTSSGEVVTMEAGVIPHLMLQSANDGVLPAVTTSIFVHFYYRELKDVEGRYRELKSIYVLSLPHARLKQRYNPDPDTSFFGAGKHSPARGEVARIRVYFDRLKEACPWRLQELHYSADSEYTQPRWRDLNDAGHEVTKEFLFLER

[5] = target: T1, SfiI D79A; experiment: competition
[6] = target: T3, SfiI D100A; experiment: competition
[7] = target: T2, SfiI endonuclease wt; experiment: competition

B1: SfiI restriction endonuclease D79A mutant (enzyme)
chain: MHQDYRELSLDELESVEKQTLRTIVQALQQYSKEAKSIFETTAADSSGEVIVLAEDITQYALEVAETYPINRRFAGFIAYKRVRWLPSPHGLLPQVLLVDAKASTEKNRDTLQRSQLPMDAEFRNTSSGEVVTMEAGVIPHLMLQSANDGVLPAVTTSIFVHFYYRELKDVEGRYRELKSIYVLSLPHARLKQRYNPDPDTSFFGAGKHSPARGEVARIRVYFDRLKEACPWRLQELHYSADSEYTQPRWRDLNDAGHEVTKEFLFLER
[1]
  stoichiometry N: 4

B2: SfiI restriction endonuclease D100A mutant (enzyme)
chain: MHQDYRELSLDELESVEKQTLRTIVQALQQYSKEAKSIFETTAADSSGEVIVLAEDITQYALEVAETYPINRRFAGFIDYKRVRWLPSPHGLLPQVLLVAAKASTEKNRDTLQRSQLPMDAEFRNTSSGEVVTMEAGVIPHLMLQSANDGVLPAVTTSIFVHFYYRELKDVEGRYRELKSIYVLSLPHARLKQRYNPDPDTSFFGAGKHSPARGEVARIRVYFDRLKEACPWRLQELHYSADSEYTQPRWRDLNDAGHEVTKEFLFLER
[1]
  stoichiometry N: 4

B3: HEX-35 (dsDNA)
DNA 1: TCGATCCATGTGGCCAACAAGGCCTATTTGTCGAT
DNA 2: ATCGACAAATAGGCCTTGTTGGCCACATGGATCGA
[2]
  Kd: < 10 nM
[3]
  Kd: < 10 nM
[4]
  Kd: < 10 nM

B4: C-21 (dsDNA)
DNA 1: ATGTGGCCAACAAGGCCTATT
DNA 2: AATAGGCCTTGTTGGCCACAT
[5]
  binding result: binds
[6]
  binding result: binds
[7]
  binding result: binds
